Results: the DeepSol protein solubility set

Experiment: soluble on expression in E. coli; label from the status in PepcDB or PDB records

Sequence | soluble on expression in E. coli
MIGGLFVYNHKGEVLISRIYRDDVTRNAVDAFRVNVIHARQQVRSPVTNMARTSFFHVKRGNVWICAVTRQNVNAAMVFEFLKRFADTMQSYFGKLNEENVKNNFVLIYELLDEILDFGYPQNTDPGVLKTFITQQGVRTATKEEQSQITSQVTGQIGWRREGIKYRRNELFLDVIEYVNLLMNQQGQVLSAHVAGKVAMKSYLSGMPECKFGINDKITIEGKSKPGSDDPNKASRAAVAIDDCQFHQCVKLTKFETEHAISFIPPDGEYELMRYRTTKDIQLPFRVIPLVREVSRNKMEVKVVVKSNFKPSLLAQKLEVRIPTPPNTSGVQLICMKGKAKYKAGENAIVWKIKRMAGMKESQISAEIDLLSTGNVEKKKWNRPPVSMNFEVPFAPSGLKVRYLKVFEPKLNYSDHDVIKWVRYIGRSGLYETRC | not soluble
MGSDKIHHHHHHMKAVNENLKEQFVKRNKLAICATLRELKKNDTSLMVHHSHGQFISKILDVVPDNNLFVFDLGGIERENSRALYAGALSFIAEPAGAKVEFNAEIAKTVNYDGLPAFSAQIPELLYLIQRRTYFRINTPLWPPLTCRGELPDDSVFTFTIKDLSLGGLSLYTDRDTTGLLTEGDIIKSVEMDLADHGFFCVDLQFVGQAMVKIVDNKGELKLTQRLSFKFPSLNAAQERDLQQVIFELEKLQNEKKKRFQEL | not soluble
MICYEYINDYIRKTIKKNEGFLAELEEFAKENHVPIVHPEVASLLRVIGLTLRPSRVLEVGTAIGYSAILFSTFLEPGGRIDTIDRYELMLEKARANVKKAGLQDVINIIEGDALEVLKCLEHKYDMIFLDAAKGQYPEFLPECLRLLRSGGLLISDNILYKGMVAKDELVVRRKKTIVKRLRNYLETICNTDELETSILPVGDGLAISFKK | not soluble
MGSDKIHHHHHHMRLFTSKSRYLIGVDIGTTSVKLVDIQRQQGVFHLRSYGTEILSEGIVIDKLIVDTEAVGNTIAGLARRCQAVGSSAATAVSGSAVITKIIDMDMVLNDVEREAQIRLDADQYIPYPLDDVNLDFEVLGPSLINDDMVQVLLAASRSENVDQRVDALTFGGLQTKVMDIESHAIERAFGLMVDSLPNLPELVALVDIGHNQTTLYVAKNGEFIYSREQLFGGSQLTEAIQNRYGLSAEEASISQREHALPEDYYPDVLTPFIENTIQQITRSLQFYFSSSQYSSIDHVVLAGGSSAIAGLAGMAQQRLGVPVSIANPFINMTIAPHIDHEQLAIDAPSLMAACGLALRSFD | not soluble
MTQKLHIKTWGCQMNEYDSSKMADLLLSTHGLELTEAPEEADVLLLNTCSIREKAQEKVFHQLGRWKELKKNNPNLVIGVGGCVASQEGEHIRHRAPYVDIIFGPQTLHRLPEMINQIRGGKSSVVDVSFPEIEKFDRLPEPRAEGPTAFVSIMEGCNKYCTFCVVPYTRGEEVSRPVDDVLFEIAQLAEQGVREVNLLGQNVNAYRGPTHDGQICSFAELLRLVASIDGIDRLRFTTSHPIEFTDDIIDVYRDTPELVSFLHLPVQAGSDRVLTMMKRAHTALEYKSIIRKLRAVRPDIQISSDFIVGFPGETAEDFEQTMNLIAQVNFDMSFSFVYSARPGTPAADMPDDVTEDEKKQRLYVLQERINQQAAQFSRRMLGTEQRVLVEGPSKKDIMELTGRTETNRIVNFQGSPEMIGKFVDVKITDVYTNSLRGEVVRTEDEMGLRIAQSPQEVMNRTRKEDELGVGRYHGLEHHHHHH | soluble
RIPVVGITGSKGMTTIARFVASLLTLSGRRTGLACSSGLYLDHRKIDHGNCANHKSARRILMNRTVEAAVFENGFDTMLEEGLPYDSCQVGIVTRIEPALHFAHQWIDTSEQVFKVLRTQVDVVSPTGGKREGDILPEIILPTGAAILNAQDPMLVQMADLCQGEVIYISCDPTLPVISVHRQEGTGPTRGKRAVTVRNWEILLIDGTAETILIRLDELQAKTGNHPVETAHLLAGVGAGWALGMSPDLIRTGLITFLQHQEKQSIVYQTF | not soluble
MILVVDNYDSFTYNLVDIVAQHTDVIVQYPDDDNVLNQSVDAVIISPGPGHPLDDQQLMKIISTYQHKPILGICLGAQALTCYYGGEVIKGDKVMHGKVDTLKVISHHQHLLYQDIPEQFSIMRYHSLISNPDNFPEELKITGRTKDCIQSFEHKERPHYGIQYHPESFATDYGVKIITNFINLVKEG | not soluble
MAEEYSWDSYLNDRLLATNQVSGAGLASEEDGVVYACVAQGEESDPNFDKWSLFYKEDYDIEVEDENGTKTTKTINEGQTILVVFNEGYAPDGVWLGGTKYQFINIERDLEFEGYNFDVATCAKLKGGLHLVKVPGGNILVVLYDEEKEQDRGNSKIAALTFAKELAESSQLQHHHHHH | soluble
MGSDKIHHHHHHMHQDTVRATAFAMPLTSPAYPVGPYRFRNREYLIITYRTDPKKLRSLVPEPLELSEPLVKFEFIRMPDSTGFGNYTESGQVIPVTFRGRKGSYTHCMFLNDHPPIAGGRELWGFPKKLATPTLRTETDTLVGTLDYGPVRVATATMGYKHEAADLSAVRSSLAEPNFLLKIIPHVDGTPRICELVEYHLEDVDLRGAWAGPASLNLWSHALAPVAELPVLEVVSAMHIVADLTLALGKVVHDYLPKSEPRDLKGRSHAFAE | not soluble
MSLTHPDFTILYVDNPPASTQFYKALLGVDPVESSPTFSLFVLANGMKLGLWSRHTVEPKASVTGGGGELAFRVENDAQVDETFAGWKASGVAMLQQPAKMEFGYTFTAADPDSHRLRVYAFAGEGHHHHHH | not soluble
MRKNKLSFKEKAGAEQEECLCFCEGEASREAMFQAPIELPEGFVVDPAEAVANVTWNADSLSCVSDRCLIQTGPEPDEVGVQFAVRLQGTVTLLVSVSPVRNQYGQGDGAVSVIHNAEIDQVVYYSDESDDCPDISDITIENLVVVPPFYGSPLSVTGTIVLVPEPEPVYAFTANPNDQSVSVIDTNTDTVVTTIALPYNPAGIEITPDKSAVFVLHPNNNVISVIDYDTLTVTATILLDQPPRLIRFIPNHEFAYVFTGTAVYVIGIDTLTVDRSIPVEGYDVAIDPNGLFAYVLNFGIVQKVDLTTGEVTGTIERELIVSTIETNWPERYAYVLEQEFFFNYLTVIDLNTFTISSTQELEYEGEYRMFTSGAEVYLYDGFTGNLYSVSPNGAGVIGNVPQSATDYAFTPNGDFLYATRFIEQSIIVYNTDDYSEETVISLGVSPGAITILEHHHHHH | soluble
MAYRDQPLGELALSIPRASALFRQYDMDYCCGGKQTLARAAARHDVDIDIIEAQLAQLAEQPIEKDWRAVPLADIIDHIVVRYHDRHREQLPELILQATKVERVHADKPNVPRGLTKYLTALHEELSSHMMKEEQILFPMIKQGMGRQATGPISVMESEHDEAGELVDVIKHVTKNVTPPPEACTTWKAMYNGINEMIDDLMEHISLENNVLFPRALAGE | not soluble
YCKTIPMPDLAYSEISVIGKLIRALPEPCALHLANSSTVRYAQLFTVPPQVEICCNRGVNGIEGSLSTAIGYAAASSKLNFIIIGDLSFFYDMNALWNQNYGANIRILLLNNEGGEIFHTLPGMDKSSRSREFITAEHYTTAKGWAEERGFIYMKVTGEEELEEAMQPFTSPETRMQPMLLEVFTDKEKDTTLLREYYHGLKNKNE | not soluble
MESVAAESAPAPENEHSQETPESNSSVYTTFMKSHRCYDLIPTSSKLVVFDTSLQVKKAFFALVTNGVRAAPLWDSKKQSFVGMLTITDFINILHRYYKSALVQIYELEEHKIETWREVYLQDSFKPLVCISPNASLFDAVSSLIRNKIHRLPVIDPESGNTLYILTHKRILKFLKLFITEFPKPEFMSKSLEELQIGTYANIAMVRTTTPVYVALGIFVQHRVSALPVVDEKGRVVDIYSKFDVINLAAEKTYNNLDVSVTKALQHRSHYFEGVLKCYLHETLEAIINRLVEAEVHRLVVVDEHDVVKGIVSLSDILQALVLTGGEKKP | soluble
MPRTDLPFDELIIREYLLDNPDFFNRYPELLLAMRLPHLERGAISLVERRQELLRQRVNQLEEEITSLLTMAARNEKIFLFNTELSFKLLNCVNLESLKEVLADNLKAQFNFTHVRLISVLEADVEMKAIWAERLRKEYYFGRLTQQEAKRLFGSEVGSVALVKLADDIPVIFAVASHDATHFHPDMDNMLLEQIRRLLAHMLAKLAAALEHHHHHH | not soluble
MAHHHHHHMNEKGNFMKKAYKNNNIQLSENQINQRIKNVNLTKRLICYERYLKAIPKIERRNDLKNSWHPETPRYNKQISLSQWNKELKKWRKQIHAWGNISEEDHRYICKLSYTDKYKYLCNLKMPELSNLEIKNMKKENEEISHDILKHILLIQNKHNNPFDENDKIMYQPIFFLPENFSGTVVHNEFVIIKEQNMEKYLTLLKDKYKDKYNYCFKKYYELYLLNKDSDNKNVENSKNTIPKNGKNHIVIYLGKETKPLNYKNKEAQYEQKEKMEAYNFLCGSTKKYENHNKMNKRKKF | not soluble
MVKLRIGYPEDPDYQERLEEFEARIARGEKIEPGDWMPAEYRRQLIRMISQHAHSEWVGMLPEGAWITRAPSLRRKLILLAKVQDEAGHGQYLYHAAETLGITREEMVEALLSGKAKYSNIFNYPTLTWADVAIIGWLVDGMAIKNQTMLAQCSYGPYSRAMVRICAEETFHHKQGKEAVLLYAKGSPKQRRMVQDALNRWWWPTLMMAGPHDTDSPHTPLLLRWGIKTKTNDQIRQEFLNEHVPELLDAGLSIPDPDLRYDEKTGNWIHGPIPWDEFWKVIGGEGPMNRHRLQGRRRAHQEGRWVREAMEAYAKRRLAQAAD | soluble
MSLETFLCGKESCNKGYIRHPWYGKKVGYIGDSITDPNCYGDNIKKYWDFLKEWLDITPYVYGVSGRQWNDVPRQAEQLKKEHGEEVDAIVVLMGTNDFNSSVPVGTWFAEKEEQVMAARGETKKLETRKRRVPIMTNDTYKGRINIGLSHLKKLFPDKQIVLLTPLHRSLAEFGEKNVQPDESYQNKCGEYVDAYVQAIKEAGNLWGVPVIDFNSVTGMNPMIEEQLIYFYDSGYDRLHPNTNGQERMAHTLMYQLLSLPASFEGHHHHHH | soluble
AYGKKSQTEVISFEEVVHPAEKIREALQVGKNEAIYELIRRRMLDGEPMTVEKIYLPQAYVQGHTKQDFEGSLFCLIEKNVEIAYSHQEIEAILVEAEISELLNVPVGQPLLQVHSITYALDATPILYDVSLYRADRYTFKNTLTRYSPSENNQVELGGSWNE | soluble
MKQLKSLDSDLEKAIGRISGGLYIITAQKGEVKGAMLASWVSQASFNPPGFTVAVAKDRAIESLMQVGDRFVLNILEEGNYQILMKHFLKRFPPGADRFAGVKTQTASNGSPILTDALAYLECEVASRMECSDHWIVYSQVTNGRVAKAEGLTAVHHRKVGNYYLEHHHHHH | not soluble
MTLENNMDKKLFCISTYGCQMNEEDSEKLSGMLKSQGYERTENKEEASIIIFNTCCVRENAENKVFGNLGQLKQLKKKNPNLVIAICGCMMQQVGMADKVLKTFPYVDIIFGTHNAHKFPEYLHRVLQEGVQVKEILNKEEGIVEGLPIDRKSDVKAFVTIMYGCNNFCTYCIVPYVRGRERSRKSEDIIKEIEELVSQGYKEITLLGQNVNSYGKGLEEDIDFAGLLRKVNEVKGLERVRFMTSHPKDLSDDVIMAIKECDKLCEQVHLPVQSGSSRILKEMNRHYDREYYLDLVKKIKSEIPDVTLTTDIIIGFPGETEEDFLDTLSLCEEVGYDSAFTFIYSRRNHTPADKMENQIPDDIKHDRFNRLVEAINKKVVIKNKEYEGKVVEVLVEGPSKNDETKLTGRTRNGKLVNFAGDEKLVGELVNLKIVRAQPFSLIGEIVE | soluble
